Molecular target: the molecule itself
Assay: cryo-EM structure

B1: AcrA, periplasmic membrane fusion protein of the AcrAB-TolC efflux pump (natural protein)
chain: CDDKQAQQGGQQMPAVGVVTVKTEPLQITTELPGRTSAYRIAEVRPQVSGIILKRNFKEGSDIEAGVSLYQIDPATYQATYDSAKGDLAKAQAAANIAQLTVNRYQKLLGTQYISKQEYDQALADAQQANAAVTAAKAAVETARINLAYTKVTSPISGRIGKSNVTEGALVQNGQATALATVQQLDPIYVDVTQSSNDFLRLKQELANGTLKQENGKAKVSLITSDGIKFPQDGTLEFSDVTVDQTTGSITLRAIFPNPDHTLLPGMFVRARLEEGLNPNAILVPQQGVTRTPRGDATVLVVGADDKVETRPIVASQAIGDKWLVTEGLKAGDRVVISGLQKVRPGVQVKAQEVTADNNQQAASGAQPEQSKS
  stoichiometry N: 6
